Measurements taken from patent US20210030857A1 (NGM BIOPHARMACEUTICALS, published 2021).

B1: negative control antibody, anti-keyhole limpet hemocyanin (KLH) antibody (antibody, human IgG1, kappa, V domains shown)
VH: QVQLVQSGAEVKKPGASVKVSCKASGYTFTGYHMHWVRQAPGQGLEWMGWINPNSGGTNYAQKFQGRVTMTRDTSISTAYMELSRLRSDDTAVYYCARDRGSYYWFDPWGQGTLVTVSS
VL: DIQMTQSPSSLSASVGDRVTITCRASQGIRNDLGWYQQKPGKAPKRLIYAASSLQSGVPSRFSGSGSGTEFTLTISSLQPEDFATYYCLQHNSYPLTFGGGTKVEIKR
notes: also called Neg; Control; anti-KLH antibody
B2: humanized 5H23 antibody (VH SEQ ID NO: 271 and VL SEQ ID NO: 276) (antibody, V domains shown)
VH: QVQLQQSGAEVKKPGASVKVSCKASGYTFTSYDINWVRQAPGQGLEWIGWIYPGDGSTKYNEKFKGKATITRDTSASTAYMELSSLRSEDTAVYFCARSDYYGSRSFAYWGQGTLVTVSS
VL: DIVMTQSPDSLAVSLGERATINCRASKSVSTSGYVYMHWYQQKPGQPPKLLIYLASYLESGVPDRFSGSGSGTDFTLTISSVQAEDVAVYYCQHSRDLTFPFGGGTKLEIK
notes: also called h5H23; h5H23 (Prep 1)

Legend:
Assay in all cases: FACS on transfected Expi293 cells, antibody 1 µg/ml, labelled anti-human Fc
[1] = molecular target: T1, mouse-human KLB chimeric protein (mouse KLB (M1-F506)-human KLB (S509-S1044)) on cells (mouse/human chimera, UniProt Q86Z14 1-1044 (human entry))
T1 construct: also called Mouse-Human chimeric KLB; chMoHu
Procedure: (§1) Studies were performed in order to localize the binding site on human KLB of anti-beta klotho antibodies in the 5H23 epitope bin, including 5H23 as described in Example 3, with sequences shown in Tables 1-10 and FIGS. 1-3, and human anti-beta klotho antibodies in the 5H23 epitope bin, such as humanized 5H23 antibodies (e.g., VH SEQ ID NO: 271 and VL SEQ ID NO: 276). For example, FACS-based binding assays for domain mapping were performed on Expi293 cells (Life Technologies, A14635) that were transiently transfected with plasmids encoding variants of KLB: human, mouse, cynomolgus, a chimeric version in which the KL1 domain sequence of mouse KLB (M1-F506) replaces the KL1 domain of human KLB (M1-F508) to create mouse-human KLB (SEQ ID NO: 376), and a second chimera in which the human KL1 sequence (M1-F508) replaces the KL1 domain of mouse KLB (M1-F506) to create human-mouse KLB (SEQ ID NO: 374). Additionally, the expression vector pYD7 harboring no KLB sequence was transfected as a negative control.
(§2) In some studies, binding of a purified sample of a humanized 5H23 antibody (e.g., VH SEQ ID NO: 271 and VL SEQ ID NO: 276) to KLB variants was determined by FACS analysis. […] After washing with PBS/1% BSA/0.1% azide, transfected cells were then co-incubated with labeled anti-human Fc (Jackson lmmunoresearch) for 30 minutes at 4° C. After washing with PBS/1% BSA/0.1% azide, cells were acquired on flow cytometer (FACS Calibur) and analyzed by cytometric software (FlowJo). To display the resulting data, graphs plotting the number of cells as a function of fluorescence intensity were generated, and the median fluorescence intensity (MFI) was determined for each sample as shown in Table 30.

[2] = molecular target: T2, cynomolgus beta klotho expressed on cells (cynomolgus monkey (Macaca fascicularis), UniProt Q86Z14 1-1044 (human entry))
T2 construct: also called Cynomolgus KLB
T2 chain: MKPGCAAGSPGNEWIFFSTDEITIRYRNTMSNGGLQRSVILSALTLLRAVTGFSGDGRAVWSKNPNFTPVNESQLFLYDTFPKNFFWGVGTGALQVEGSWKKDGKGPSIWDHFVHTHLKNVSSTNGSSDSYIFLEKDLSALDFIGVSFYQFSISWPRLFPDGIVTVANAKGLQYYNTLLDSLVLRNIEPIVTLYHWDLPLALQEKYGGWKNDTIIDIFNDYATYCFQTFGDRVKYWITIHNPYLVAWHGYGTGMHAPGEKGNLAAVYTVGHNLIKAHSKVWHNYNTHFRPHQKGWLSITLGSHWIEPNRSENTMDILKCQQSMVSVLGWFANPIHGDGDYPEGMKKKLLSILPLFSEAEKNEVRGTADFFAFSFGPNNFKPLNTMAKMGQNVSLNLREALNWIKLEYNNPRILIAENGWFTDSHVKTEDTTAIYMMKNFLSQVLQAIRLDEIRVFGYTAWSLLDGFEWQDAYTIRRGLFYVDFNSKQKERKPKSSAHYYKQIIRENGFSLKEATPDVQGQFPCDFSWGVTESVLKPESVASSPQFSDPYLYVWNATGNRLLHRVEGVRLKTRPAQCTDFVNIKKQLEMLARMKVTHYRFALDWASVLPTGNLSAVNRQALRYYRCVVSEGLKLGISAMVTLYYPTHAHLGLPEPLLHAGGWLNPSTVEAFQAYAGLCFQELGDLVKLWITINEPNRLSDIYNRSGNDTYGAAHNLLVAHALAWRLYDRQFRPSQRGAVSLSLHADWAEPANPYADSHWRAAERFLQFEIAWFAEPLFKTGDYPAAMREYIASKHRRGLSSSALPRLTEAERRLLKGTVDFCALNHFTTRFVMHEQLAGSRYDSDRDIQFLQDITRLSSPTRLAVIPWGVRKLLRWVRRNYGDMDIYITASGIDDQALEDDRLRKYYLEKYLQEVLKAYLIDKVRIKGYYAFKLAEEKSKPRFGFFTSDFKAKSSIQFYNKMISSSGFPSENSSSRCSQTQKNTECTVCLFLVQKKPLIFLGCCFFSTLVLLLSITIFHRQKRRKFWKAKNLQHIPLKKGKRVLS
Procedure: as §1, §2

[3] = molecular target: T3, human-mouse KLB chimeric protein (human KLB (M1-F508)-mouse KLB (P507-S1043)) on cells (human/mouse chimera, UniProt Q99N32 1-1043 (mouse entry))
T3 construct: also called Human-Mouse chimeric KLB; chHuMo
Procedure: as §1, §2

Row | Binder | Mean Fluorescence intensity [1] | Mean Fluorescence intensity [2] | Mean Fluorescence intensity [3]
1 | B1 | 5.44 MFI | 9.26 MFI | 6.01 MFI
2 | B2 | 26.1 MFI | 1910 MFI | 9.29 MFI
